Earlier results, collected in EP0314042A2, “Novel copolymers and superoxide dismutase modified with said copolymers” (KURARAY CO., LTD., priority 1987, dated 1989).

Key:
[1] = as compared with SOD; cited from earlier work
[2] = result in words, relative to SOD; cited from earlier work

Substance	enzymatic activity of SOD [1]	plasma half-life [2]
Ficoll-modified SOD: SOD converted to a giant molecule through modification with Ficoll	markedly decreased	
inulin-modified SOD: SOD modified with inulin (Japanese Kokai Tokkyo Koho No. 58-32826)	reduced	much prolonged
polyethylene glycol-modified-SOD: SOD converted to a giant molecule through modification with polyethylene glycol	markedly decreased	
